# From patent US20100272689A1, “Protease Having Algicidal Activity, Gene Encoding the Same and Algicidal Formulation Comprising the Same” (KOREA OCEAN RESEARCH & DEVELOPMENT INSTITUTE, priority 2007, published 2010)
# Where “and” joins values, the source holds several entries; their conditions need not be identical. Equal entries are not always repeated.
# B1: 10476—7: protein containing only mature protein, without signal peptide and processing peptide (protein, listed as Kordia algicida)
# chain: QYRTNNLVSPGVITIIGYTGNNSNGLTTKMQTGLRWAVDNYNALNLSISFQLTFGTDYQNKDMVVYQVQGGAGGSAGFPSGGNPYKWVKINSGMAPYSNNVHEHVIGHEIGHSIGFRHSDYFSRQSCGQNSNEGSAGVGAIHIPGTPTGWDPTSLMNACFSSSEDGEFNGNDITALNFLY
# modifications: KAOT1_10476 of Kordia algicida OT-1 lacking signal and processing peptide
# B2: 10476—8: protein containing processing peptide and mature protein, without the signal peptide part (protein, listed as Kordia algicida)
# chain: VVDEEQDTAIGIPQDVLQKAQSLHFNTFDMQEASFEKPNGKIEEGYMMEGDIFFTRDQLMNMELGGDITSKQYRTNNLVSPGVITIIGYTGNNSNGLTTKMQTGLRWAVDNYNALNLSISFQLTFGTDYQNKDMVVYQVQGGAGGSAGFPSGGNPYKWVKINSGMAPYSNNVHEHVIGHEIGHSIGFRHSDYFSRQSCGQNSNEGSAGVGAIHIPGTPTGWDPTSLMNACFSSSEDGEFNGNDITALNFLY
# modifications: KAOT1_10476 of Kordia algicida OT-1 lacking signal peptide
# notes: protein containing processing peptide and mature protein, without the signal peptide part
# Assays:
# gelatin [1] = assay: Protease activity at various temperature and pH; format: biochemical
# Procedure: 10476—7 protein (SEQ ID NO: 27) containing only mature protein was suspended with SDS in combination with stabilization by using EDTA and resistance to detergent, and refolded by dilution using buffer solution containing 50 mM Tris-HCl, 1 mM EDTA and 1% triton X-100 except SDS, and then protease activity was measured at various temperature and pH according to the method as described above [Park, H. I., J. Biol. Chem., 275:20540-20544, 2000]. The results are shown in FIG. 9 and FIG. 10, respectively.
# gelatin [2] = assay: Protease activity by electrophoresis on gelatin substrate gel; format: biochemical; conditions: refolded protein, FIG. 7
# Procedure: Protease activity of proteases obtained according to Example 6 was measured using electrophoresis on gelatin substrate gel [Park, H. I., J. Biol. Chem., 275:20540-20544, 2000].
# [3] = tested on: Cochlodinium polykrikoides; assay: Algicidal activity by cell count after 24 hr (Lugol staining); format: cell-based; conditions: 50 μl of protein (100 μg/ml), after 24 hr; for Cell number: ( ): standard deviation
# Procedure: Organisms used as host for algicidal bacteria screen are Cochlodinium polykrikoides, Thalassiosira sp., Heterosigma akashiwo, Skeletonema costatum, Alexandrium sp., Gymnodium sp., Chaetoceros cuvisetus. Each algae cell was grown to log phase in F/2 broth (0.075 g NaNO3, 0.005 g NaH2PO4?H2O, 0.030 g Na2SiO3?9H2O, 1 ml F/2 trace metal solution, 1 ml F/2 vitamin solution and 1,000 ml aged seawater) [Stein, Handbook of phycological methods, Cambridge Univ. Press, 1973].
# The cultured red tide organisms were diluted in F/2 broth to a final density of 0.05 (excitation wavelength=434 nm, emission wavelength=670 nm)on the fluorescent intensity using fluoro-spectrophotometer (Hitachi, Japan), and then 2.7 ml aliquots were dispensed into several test tubes (110 mm×10 mm) to prepare for the MPN (most probable number) method.
# To measure algicidal activity of 10476—7 protein (SEQ ID NO:27), 50 μl of said protein (100 μg/ml) was added to the culture solutions of Cochlodinium polykrikoides, Thalassiosira sp., Heterosigma akashiwo, Skeletonema costatum, Alexandrium sp., Chaetoceros cuvisetus and Gymnodniium sp. which were prepared in Example 2. After 24 hr, said culture solutions were stained with 1% Lugol's iodine solution, and then the cell number was counted. Experimental groups with protease (experimental group 1 and 2) were compared with control group without protease in cell number and the degree of inhibition.
# To check algicidal activity of proteins isolated Flavobacterium johnsoniae UW101 (ZP—01247095, SEQ ID NO: 4), Croceibacter atlanticus HTCC2559 (ZP—00951344, SEQ ID NO: 5), Leeuwenhoekiella blandensis MED217 (ZP—01059780, SEQ ID NO: 6) and Kordia algicida KAOT1—11562 (SEQ ID NO: 7), 50 μl of said protein (100 μg/ml) was added to the culture solutions of Cochlodinium polykrikoides, Thalassiosira sp., Heterosigma akashiwo, Skeletonema costatum, Alexandrium sp., Chaetoceros cuvisetus, and Gymnodium sp., which were prepared in Example 2. After 24 hr, said culture solutions were stained with 1% Lugol's iodine solution, and then the cell number was counted.
# Experimental groups with protease (experimental group 1 and 2) were compared with control group without protease in cell number and the degree of inhibition.
# gelatin [4] = assay: Protease activity with zinc or calcium ion (gelatin, TCA supernatant); format: biochemical; conditions: 0.1% gelatin, pH 8.0, 20° C., 2 hr
# Procedure: Also, 5 μg of refolded protein was added to buffer solution containing 0.1% gelatin, 50 mM Tris-HCl (pH 8.0), 100 mM KCl and 1 mM zinc or calcium ion, incubated at 20° C. for 2 hr, and then 5% TCA solution (w/v) was added to the solution, followed by stand for 10 min on ice. After centrifugation for 5 min at 10,000 rpm, the protein was measured using the supernatant. Inhibition of protease activity by metal ions was measured by comparing with control group without metal ion.
# [5] = Procedure: To observe protein processing of the protease having algicidal activity according to the present invention, analysis of protease activity was performed as the same method of Example 7 except 10476—8 protein (SEQ ID NO: 26) which was reacted at 4° C. for a week, and then that was confirmed by SDS-PAGE (FIG. 8).
Molecule,Temperature of optimal protease activity (gelatin [1]; FIG. 9),pH of optimal protease activity (gelatin [1]; FIG. 10),Protease activity (gelatin [2]),The degree of inhibition (%) ([3]; experimental group 1),Cell number ([3]; experimental group 1),The degree of inhibition (%) ([3]; experimental group 2),Cell number ([3]; experimental group 2),Effect of zinc ion on protease activity (gelatin [4]; FIG. 11),Calcium ion concentration of maximal protease activity (gelatin [4]; FIG. 12) [mM],Time until turned into mature protease by degradation of processing peptide [5] [days]
B1,about 20 °C,7-8,showed protease activity,40.7,960(30) cell/ml and 940(60) cell/ml,30.0,1040(90) cell/ml and 900(110) cell/ml,inhibition of 10476—7 protein activity by zinc ion was confirmed,80 to 100,–
B2,–,–,showed protease activity,–,–,–,–,–,–,3
